Measured values as given in patent US20130266574A1 (Regeneron, published 2013).

T1: bovine LPL (bovine, UniProt P11151 29-478)
T1 sequence (looked up): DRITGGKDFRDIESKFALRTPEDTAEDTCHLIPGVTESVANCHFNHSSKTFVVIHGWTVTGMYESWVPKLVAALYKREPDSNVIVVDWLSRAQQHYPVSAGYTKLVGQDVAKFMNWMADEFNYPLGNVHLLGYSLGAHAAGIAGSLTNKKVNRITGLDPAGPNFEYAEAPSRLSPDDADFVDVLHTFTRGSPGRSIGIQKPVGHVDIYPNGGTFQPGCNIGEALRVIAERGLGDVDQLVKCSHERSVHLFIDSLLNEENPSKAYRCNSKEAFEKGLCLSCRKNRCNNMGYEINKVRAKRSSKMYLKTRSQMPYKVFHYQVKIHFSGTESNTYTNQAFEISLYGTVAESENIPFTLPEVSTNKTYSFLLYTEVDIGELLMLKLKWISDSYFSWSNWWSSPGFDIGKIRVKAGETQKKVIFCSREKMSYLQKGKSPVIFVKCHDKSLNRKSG


Columns and labels:
[1] = biological target: T1, bovine LPL; test: cell-based or functional assay
[2] = biological target: T1, bovine LPL; test: cell-based or functional assay; remark: listed apart in the source

EC50 (nM) of the ANGPTL4 protein in the LPL inhibition assay [1] [nM]	EC50 (nM) of the ANGPTL4 protein in the LPL assay [2] [nM]	Binder
0.29	0.5	amino acid residues 26-148 of human ANGPTL4 fused in-line to mouse IgG2a (hANGPTL4-mFc) (Fc fusion) GPVQSKSPRFASWDEMNVLAHGLLQLGQGLREHAERTRSQLSALERRLSACGSACQGTEGSTDLPLAPESRVDPEVLHSLQTQLKAQNSRIQQLFHKVAQQQRHLEKQHLRIQHLQSQFGLLDPGSLEFALERNSGEPRGPTIKPCPPCKCPAPNLLGGPSVFIFPPKIKDVLMISLSPIVTCVVVDVSEDDPDVQISWFVNNVEVHTAQTQTHREDYNSTLRVVSALPIQHQDWMSGKEFKCKVNNKDLPAPIERTISKPKGSVRAPQVYVLPPPEEEMTKKQVTLTCMVTDFMPEDIYVEWTNNGKTELNYKNTEPVLDSDGSYFMYSKLRVEKKNWVERNSYSCSVVHEGLHNHHTTKSFSRTPGK
	0.63	mANGPTL4-His [R26-S410 of mANGPTL4 (SEQ ID NO: 478) fused with an AS linker to a C-terminal 6-histidine tag] (ligand) RPAQPEPPRFASWDEMNLLAHGLLQLGHGLREHVERTRGQLGALERRMAACGNACQGPKGKDAPFKDSEDRVPEGQTPETLQSLQTQLKAQNSKIQQLFQKVAQQQRYLSKQNLRIQNLQSQIDLLAPTHLDNGVDKTSRGKRLPKMTQLIGLTPNATHLHRPPRDCQELFQEGERHSGLFQIQPLGSPPFLVNCEMTSDGGWTVIQRRLNGSVDFNQSWEAYKDGFGDPQGEFWLGLEKMHSITGNRGSQLAVQLQDWDGNAKLLQFPIHLGGEDTAYSLQLTEPTANELGATNVSPNGLSLPFSTWDQDHDLRGDLNCAKSLSGGWWFGTCSHSNLNGQYFHSIPRQRQERKKGIFWKTWKGRYYPLQATTLLIQPMEATAASASHHHHHH
4.54	6	full-length hANGPTL4 (amino acid residues 26-406 of SEQ ID NO:476) with a C-terminal hexa-histidine tag (ligand) GPVQSKSPRFASWDEMNVLAHGLLQLGQGLREHAERTRSQLSALERRLSACGSACQGTEGSTDLPLAPESRVDPEVLHSLQTQLKAQNSRIQQLFHKVAQQQRHLEKQHLRIQHLQSQFGLLDHKHLDHEVAKPARRKRLPEMAQPVDPAHNVSRLHRLPRDCQELFQVGERQSGLFEIQPQGSPPFLVNCKMTSDGGWTVIQRRHDGSVDFNRPWEAYKAGFGDPHGEFWLGLEKVHSITGDRNSRLAVQLRDWDGNAELLQFSVHLGGEDTAYSLQLTAPVAGQLGATTVPPSGLSVPFSTWDQDHDLRRDKNCAKSLSGGWWFGTCSHSNLNGQYFRSIPQQRQKLKKGIFWKTWRGRYYPLQATTMLIQPMAAEAASHHHHHH
